Assay results from patent publication US10226417B2, “Drug delivery systems and applications” (priority 2011, dated 2019).
Values after ≈ are worked out from the molar mass of the structure shown. Where two headings read alike, the source gives them in different places.

What was measured:
[1] = cited from earlier work
[2] = cited from earlier work; remark: listed apart in the source
[3] = Circular dichroism analysis of released protein; format: physicochemical; conditions: protein released from O-LA-SG into PBS, sample at day 40
Experimental: At day 40 a sample of the PBS solution was tested be circular dichroism CD analysis to monitor for any changes in protein structure.

[4] = Isoelectric focusing (IEF) of ovalbumin during processing; format: physicochemical
Experimental: Samples of O-LA were prepared as in Example 5. Samples at each step of the process were collected and analyzed by Isoelectric focusing (IEF) which measures the isoelectric point (pI) of the protein. A shift in pI of more than 0.2 is indicative of a single deamidation reaction. All samples had pI values that indicated no deamidation had occurred. The same samples were analyzed by ELISA. The ELISA tests indicated no denaturation of the epitope had occurred.

[5] = 1-octanol/water (pH 7.4; buffer solution)

## CCCCCCCCCCCCCCCCCC(=O)OC [methyl stearate]
[1]; [5]
  log P: 8.43

## CCCCCCCCCCCCCCCC(=O)OC [methyl palmitate]
[1]; [5]
  log P: 7.41

## CCCCCCCCCCCC(=O)O [dodecanoic]
[2]; value is for the methyl ester of the acid named in the row
  Methyl ester solubility: 4.8 µg/mL
[2]
  Solubility in water at 20° C.: 55 µg/mL (≈ 275 µM)
[1]; [5]
  log P: 4.77

## CCCCCCCCCCCCCC(=O)O [tetradecanoic]
[2]
  Solubility in water at 20° C.: 20 µg/mL (≈ 87.6 µM)

## CCCCCCCCCC(=O)O [decanoic]
[1]; pH 7.4
  log P: 3.75

B1: ovalbumin: protein albumin used to model a water soluble therapeutic agent protein (protein, UniProt P01012 2-386, looked up)
Ovalbumin: GSIGAASMEFCFDVFKELKVHHANENIFYCPIAIMSALAMVYLGAKDSTRTQINKVVRFDKLPGFGDSIEAQCGTSVNVHSSLRDILNQITKPNDVYSFSLASRLYAEERYPILPEYLQCVKELYRGGLEPINFQTAADQARELINSWVESQTNGIIRNVLQPSSVDSQTAMVLVNAIVFKGLWEKAFKDEDTQAMPFRVTEQESKPVQMMYQIGLFRVASMASEKMKILELPFASGTMSMLVLLPDEVSGLEQLESIINFEKLTEWTSSNVMEERKIKVYLPRMKMEEKYNLTSVLMAMGITDVFSSSANLSGISSAESLKISQAVHAAHAEINEAGREVVGSAEAGVDAASVSEEFRADHPFLFCIKHIATNAVLFFGRCVSP
[3]
  change in protein structure by circular dichroism: no wavelength shift

B2: Ground Albumin powder: ovalbumin ground to a fine powder, process sample (protein, UniProt P01012 2-386, looked up)
Ovalbumin: B1 Ovalbumin
modifications: ground powder
notes: ovalbumin ground to a fine powder, process sample
[4]; Sample 1
  IEF data Ovalbumin A1 %: 81.7%
  IEF data Ovalbumin A1 pI: 5.10
  IEF data Ovalbumin A2 + A3 %: 18.3%
  IEF data Ovalbumin A2 + A3 pI: 5.15
[4]; Sample 2
  IEF data Ovalbumin A1 %: 81.2%
  IEF data Ovalbumin A1 pI: 5.11
  IEF data Ovalbumin A2 + A3 %: 18.8%
  IEF data Ovalbumin A2 + A3 pI: 5.15

B3: Albumin powder: ovalbumin powder, process sample before grinding (protein, UniProt P01012 2-386, looked up)
Ovalbumin: B1 Ovalbumin
modifications: powder
notes: ovalbumin powder, process sample before grinding
[4]; Sample 1
  IEF data Ovalbumin A1 %: 80.9%
  IEF data Ovalbumin A1 pI: 5.10
  IEF data Ovalbumin A2 + A3 %: 19.1%
  IEF data Ovalbumin A2 + A3 pI: 5.14
[4]; Sample 2
  IEF data Ovalbumin A1 %: 82.2%
  IEF data Ovalbumin A1 pI: 5.09
  IEF data Ovalbumin A2 + A3 %: 17.8%
  IEF data Ovalbumin A2 + A3 pI: 5.14
